{
  "source": "patent US10919943B2",
  "about": "“Mutant proteins enabling agrochemical control of plant gene expression” (The Regents of the University of California, priority 2016, dated 2021)",
  "molecules": {"B1": {"name": "G247T: HAB1 mutant (protein, UniProt Q9CAJ0 23-511, looked up, variant G247T)", "Protein phosphatase 2C 16": "SPVEITQLKNVTDAADLLSDSENQSFCNGGTECTMEDVSELEEVGEQDLLKTLSDTRSGSSNVFDEDDVLSVVEDNSAVISEGLLVVDAGSELSLSNTAMEIDNGRVLATAIIVGESSIEQVPTAEVLIAGVNQDTNTSEVVIRLPDENSNHLVKGRSVYELDCIPLWGTVSIQGNRSEMEDAFAVSPHFLKLPIKMLMGDHEGMSPSLTHLTGHFFGVYDGHGTHKVADYCRDRLHFALAEEIERIKDELCKRNTGEGRQVQWDKVFTSCFLTVDGEIEGKIGRAVVGSSDKVLEAVASETVGSTAVVALVCSSHIVVSNCGDSRAVLFRGKEAMPLSVDHKPDREDEYARIENAGGKVIQWQGARVFGVLAMSRSIGDRYLKPYVIPEPEVTFMPRSREDECLILASDGLWDVMNNQEVCEIARRRILMWHKKNGAPPLAERGKGIDPACQAAADYLSMLALQKGSKDNISIIVIDLKAQRKFKTRT"}, "B2": {"name": "G247I: HAB1 mutant (protein, UniProt Q9CAJ0 23-511, looked up, variant G247I)", "Protein phosphatase 2C 16": "B1 Protein phosphatase 2C 16 with T225I"}, "B3": {"name": "G247E: HAB1 mutant (protein, UniProt Q9CAJ0 23-511, looked up, variant G247E)", "Protein phosphatase 2C 16": "B1 Protein phosphatase 2C 16 with T225E"}, "B4": {"name": "G247K: HAB1 mutant (protein, UniProt Q9CAJ0 23-511, looked up, variant G247K)", "Protein phosphatase 2C 16": "B1 Protein phosphatase 2C 16 with T225K"}, "B5": {"name": "G247W: HAB1 mutant (protein, UniProt Q9CAJ0 23-511, looked up, variant G247W)", "Protein phosphatase 2C 16": "B1 Protein phosphatase 2C 16 with T225W"}, "B6": {"name": "G247Y: HAB1 mutant (protein, UniProt Q9CAJ0 23-511, looked up, variant G247Y)", "Protein phosphatase 2C 16": "B1 Protein phosphatase 2C 16 with T225Y"}, "B7": {"name": "G247F: HAB1 mutant (protein, UniProt Q9CAJ0 23-511, looked up, variant G247F)", "Protein phosphatase 2C 16": "B1 Protein phosphatase 2C 16 with T225F"}, "B8": {"name": "G247V: HAB1 mutant (protein, UniProt Q9CAJ0 23-511, looked up, variant G247V)", "Protein phosphatase 2C 16": "B1 Protein phosphatase 2C 16 with T225V"}, "B9": {"name": "PYR1^Y58H;K59R;V81I;F108A;S122G;M158V;F159V;A160V;T162D: PYR1 mutant with 9 mutations (protein, listed as Arabidopsis thaliana)", "chain": "MPSELTPEERSELKNSIAEFHTYQLDPGSCSSLHAQRIHAPPELVWSIVRRFDKPQTHRHFIKSCSVEQNFEMRVGCTRDIIVISGLPANTSTERLDILDDERRVTGASIIGGEHRLTNYKGVTTVHRFEKENRIWTVVLESYVVDMPEGNSEDDTRVVVDDVVKLNLQKLATVAEAMARNSGDGSGSQVT"}, "B10": {"name": "PYR1^Y58H;K59R;V81I;F108A;S122G;M158I;F159V;A160C;T162D: PYR1 mutant with 9 mutations (protein, listed as Arabidopsis thaliana)", "chain": "B9 chain with V158I, V160C"}, "B11": {"name": "S322D (protein, listed as Arabidopsis thaliana)", "chain": "MEEMTPAVAMTLSLAANTMCESSPVEITQLKNVTDAADLLSDSENQSFCNGGTECTMEDVSELEEVGEQDLLKTLSDTRSGSSNVFDEDDVLSVVEDNSAVISEGLLVVDAGSELSLSNTAMEIDNGRVLATAIIVGESSIEQVPTAEVLIAGVNQDTNTSEVVIRLPDENSNHLVKGRSVYELDCIPLWGTVSIQGNRSEMEDAFAVSPHFLKLPIKMLMGDHEGMSPSLTHLTGHFFGVYDGHGGHKVADYCRDRLHFALAEEIERIKDELCKRNTGEGRQVQWDKVFTSCFLTVDGEIEGKIGRAVVGSSDKVLEAVADETVGSTAVVALVCSSHIVVSNCGDSRAVLFRGKEAMPLSVDHKPDREDEYARIENAGGKVIQWQGARVFGVLAMSRSIGDRYLKPYVIPEPEVTFMPRSREDECLILASDGLWDVMNNQEVCEIARRRILMWHKKNGAPPLAERGKGIDPACQAAADYLSMLALQKGSKDNISIIVIDLKAQRKFKTRT"}, "B12": {"name": "S322E (protein, listed as Arabidopsis thaliana)", "chain": "B11 chain with D322E"}, "B13": {"name": "R199A (protein, listed as Arabidopsis thaliana)", "chain": "B11 chain with R199A, D322S"}},
  "note": "Substitutions are numbered along the chain they refer to. In names and notes the source's numbering stands. Marks after values point to notes of the source that are not given here.",
  "data": [
    {"target": "T1, PYR1 (Arabidopsis thaliana, UniProt O49686)", "T1 construct": "expressed in transfected cells; host or cells: S. cerevisiae strain Y190", "T1 sequence (O49686 1-191)": "B9 chain with H58Y, R59K, I81V, A108F, G122S, V158M, V159F, V160A, D162T", "assay": "Yeast two hybrid of pACT-HAB1 site saturation mutants with pBD-PYR1 on 10 μM ABA, β-galactosidase staining", "assay_type": "cell-based", "parameters": "key: x: Mutations in HAB1 that disrupt HAB1 interaction with PYR1", "settings": "S. cerevisiae Y190, 10 μM ABA; dead = lack of detectable staining in comparison to wild type control", "in_short": "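Read-out is β-galactosidase staining of chloroform-lysed Y190 colonies grown 2 days at 30 °C on SD (-Leu,-Trp) plus 10 μM ABA. Each pACT-HAB1 single-substitution mutant (N-terminally truncated by three residues) was paired with pBD-PYR1; absence of detectable staining relative to wild type scored as dead.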", "values": [
      {"molecule": "B1", "Mutations in HAB1 that disrupt HAB1 interaction with PYR1": "x"},
      {"molecule": "B2", "Mutations in HAB1 that disrupt HAB1 interaction with PYR1": "x"},
      {"molecule": "B3", "Mutations in HAB1 that disrupt HAB1 interaction with PYR1": "x"},
      {"molecule": "B4", "Mutations in HAB1 that disrupt HAB1 interaction with PYR1": "x"},
      {"molecule": "B5", "Mutations in HAB1 that disrupt HAB1 interaction with PYR1": "x"},
      {"molecule": "B6", "Mutations in HAB1 that disrupt HAB1 interaction with PYR1": "x"},
      {"molecule": "B7", "Mutations in HAB1 that disrupt HAB1 interaction with PYR1": "x"},
      {"molecule": "B8", "Mutations in HAB1 that disrupt HAB1 interaction with PYR1": "x"}
    ]},
    {"test_system": "HAB1^!-2", "assay": "Yeast two hybrid, mandipropamid-promoted interaction of PYR1 variants with HAB1^!-2", "assay_type": "cell-based", "settings": "FIG. 3, FIG. 4", "excerpt": "(§1) To engineer orthogonal mandipropamid responsiveness, we introduced the PYR1^! mutation into the PYR1^MANDI receptor to create a septuple mutant called PYR1^!-MANDI (PYR1^Y58H;K59R;V81I;F108A;S122G;F159L;T162D). This mutant interacts with HAB1^! and HAB^!-2 in response to low μM mandipropamid in yeast two-hybrid assays, but is ˜100-fold less sensitive than the PYR1^MANDI/HAB1 interaction, which responds to concentrations in the low nM range (FIG. 3).\n(§2) To improve sensitivity, we mutagenized ligand contacting and interface residues in PYR1^!-MANDI using NNK primers, pooled the mutant libraries, and used the mutagenized receptors in selection experiments using to identify enhancer mutations. The NNK mutagenesis screen targeted the following residues: P55, H60, F61, I62, K63, V83, S85, G86, L87, P88, A89, S92, E94, I110, H115, R116, L117, Y120, E141, P148, G150, N151, D154, D155, T156, M158, A160, V163, V164, L166, N167, and K170. […] Since M158 and A160 flank the […] mutation present in PYR1^MANDI, we inferred that the closely located orthogonalizing T162D mutation in PYR1^!-MANDI may have reduced mandipropamid sensitivity by altering the local structure of the C-terminal α3-helix, which participates in ligand-induced conformational changes needed for PP2C binding (Nishimura et al., 2009). We therefore simultaneously mutagenized positions M158, F159 and A160 using a primer with degenerate NNK codons at all three positions. F159 was included in this mutagenesis because we have previously observed that multiple substitutions at F159 (A,C,I,L,M,T, or V) are permissive for mandipropamid responsiveness (S. Y. Park et al., n.d.), and sought to test whether residues other than leucine at position 159 might function better in the context of simultaneous changes to both A160 and M158. The mutagenic primer was used in QuickChange mutagenesis reactions using pBD-PYR1^!-MANDI template, and a library of ˜12,000 clones was generated. Plasmid DNA for the library was prepared from pooled E. coli transformants, and subsequently transformed into S. cerevisiae strain MAV99 harboring pACT-HAB1^!-2. ˜20,000 yeast transformants were generated, pooled, and plated onto SD(-Leu,-Trp) agar media supplemented with 0.1% fluorotic acid (to select against mutants that interact in a ligand-independent fashion). The surviving cells were collected and plated onto SD(Leu,-Trp,-Ura) plates supplemented with 50 nM mandipropamid. The colonies displaying the best uracil-independent growth were isolated and retested on different mandipropamid concentrations and then stained in β-galactosidase assays to rank their relative strength.", "values": [
      {"molecule": "B9", "mandipropamid concentration to which the interaction responds": "nM responses"},
      {"molecule": "B10", "mandipropamid concentration to which the interaction responds": "nM responses"}
    ]},
    {"test_system": "HAB1^!-2", "assay": "Yeast two hybrid, mandipropamid-promoted interaction of PYR1 variants with HAB1^!-2", "assay_type": "cell-based", "settings": "β-galactosidase assays on different mandipropamid concentrations", "excerpt": "as §1, §2", "values": [
      {"molecule": "B9", "relative mandipropamid sensitivity among selected mutants": "slightly less sensitive than PYR1*^-MANDI"},
      {"molecule": "B10", "relative mandipropamid sensitivity among selected mutants": "slightly less sensitive than PYR1*^-MANDI"}
    ]},
    {"target": "T2, PYR1*^-MANDI (Arabidopsis thaliana, UniProt O49686, A160V/F108A/F159V/K59R/M158I/S122G/T162D/V81I/Y58H)", "T2 construct": "expressed in transfected cells; host or cells: S. cerevisiae strain MAV99 (selection)", "T2 sequence (O49686 1-191 Y58H/K59R/V81I/F108A/S122G/M158I/F159V/A160V/T162D)": "B9 chain with V158I", "assay": "Yeast two hybrid, mandipropamid-induced interaction of HAB1 variants with pBD-PYR1*^-MANDI", "assay_type": "cell-based", "settings": "selection on 500 nM mandipropamid", "excerpt": "To investigate the effects of overexpressing HAB1^!-2 in Arabidopsis, we used Agrobacterium mediated transformation to generate 35S::GFP-HAB1^!-2 transgenic plants. HAB1^!-2 was cloned from pACT-HAB1^!-2 into pEGAD, a binary vector suitable for plant transformation, generating a 35S-driven GFP-HAB1^!-2 fusion protein. The clone was transformed into Agrobacterium and the floral dip method used to transform Arabidopsis. After selection of T0 seed on soil containing glufosinate, several T1 seedlings were identified. […] As an alternate strategy, we eliminated HAB1's catalytic activity by introducing a mutation in a conserved metal-ion binding residue (D204), which is homologous to D131A mutation in ABI1, previously shown to eliminate phosphatase activity without disrupting wild type receptor-ABI1 interactions (Liang et al., 2011). We used QuickChange mutagenesis to introduce the D204A mutation into pACT-HAB1^!-2, generating pACT-HAB1^!-3. When tested for mandipropamid induced interactions with pBD-PYR1*^-MANDI, HAB1^!-3 is ˜10-fold less sensitive to mandipropamid relative to HAB1^!-2 (FIG. 5).\nD204 is located within HAB1's catalytic active site and binds to one of 3 catalytic Mg^++ ions that participate in catalysis. […] It is likely that disruptions to active site structure introduced by D204A destabilize the PYR1*^-MANDI/HAB1^!-3 interaction relative to HAB1^!-2. We reasoned that suppressor mutations in other HAB1 interface or active site residues could restore sensitivity by strengthening interactions with PYR1*^-MANDI. To identify such suppressors, we mutagenized the pACT-HAB1^!-3 template using NNK mutagenesis in 28 residues located with at the PYR1 binding interface. The residues targeted were: R199, S200, E201, E203, D243, G244, H245, G246, G247, S322, E323, T324, D346, K365, K381, 1383, Q384, W385, Q386, R389, F391, G392, Y404, S431, G433, D436, D492 and N394. The pACT-HAB1^!-3 template was mutagenized in 28 separate NNK mutagenesis reactions using the QuickChange protocol. Mini-libraries, each containing ˜1000 clones, were made for each NNK reaction and plasmid DNA for the 28 mutations prepared, pooled, and then transformed into S. cerevisiae strain MAV99 co-transformed with pBD-PYR1*^-MANDI, and then plated onto selective SD(-Leu,-Trp,-Ura) agar media supplemented with 500 nM mandipropamid. […] S322D and R199A were combined using the Lightning Multi-site Mutagenesis™ (Agilent, USA) method, and the resultant pentuple mutant tested in combination with pBD-PYR1*^-MANDI for sensitivity to mandipropamid using β-galactosidase assays.", "values": [
      {"molecule": "B11", "effect of mutation on mandipropamid responsiveness of HAB1^!-3": "enhance responsiveness of HAB1^!-3"},
      {"molecule": "B12", "effect of mutation on mandipropamid responsiveness of HAB1^!-3": "enhance responsiveness of HAB1^!-3"},
      {"molecule": "B13", "effect of mutation on mandipropamid responsiveness of HAB1^!-3": "enhance responsiveness of HAB1^!-3"}
    ]}
  ]
}
